Results reported in publication PMC3462482 (Nature structural & molecular biology, 2012).

Molecular target: T1, PatGmac H618A (Prochloron sp., UniProt Q52QJ1 492-851, H618A)
T1 sequence: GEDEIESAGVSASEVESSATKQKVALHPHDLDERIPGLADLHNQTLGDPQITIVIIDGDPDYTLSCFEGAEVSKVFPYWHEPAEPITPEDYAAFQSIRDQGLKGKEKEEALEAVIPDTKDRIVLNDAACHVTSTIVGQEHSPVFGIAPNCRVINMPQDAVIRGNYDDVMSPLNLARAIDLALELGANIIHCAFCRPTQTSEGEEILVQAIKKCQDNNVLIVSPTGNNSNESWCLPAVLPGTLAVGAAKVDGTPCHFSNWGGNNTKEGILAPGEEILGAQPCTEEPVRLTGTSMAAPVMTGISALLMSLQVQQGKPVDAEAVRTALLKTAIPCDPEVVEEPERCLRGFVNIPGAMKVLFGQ
Experiment: crystal structure

Binder: VPAPIPFPAYDG [VPAPIPFPAYDG peptide (substrate mimic)]
- binding result: binds
